The text below walks through data of paper PMC2817471.

As a reminder, the Kd is the concentration at which binding is half-saturated.

The target of series [1] is T1, XPD (Sulfolobus acidocaldarius, UniProt Q4JC68 1-551).
T1 sequence: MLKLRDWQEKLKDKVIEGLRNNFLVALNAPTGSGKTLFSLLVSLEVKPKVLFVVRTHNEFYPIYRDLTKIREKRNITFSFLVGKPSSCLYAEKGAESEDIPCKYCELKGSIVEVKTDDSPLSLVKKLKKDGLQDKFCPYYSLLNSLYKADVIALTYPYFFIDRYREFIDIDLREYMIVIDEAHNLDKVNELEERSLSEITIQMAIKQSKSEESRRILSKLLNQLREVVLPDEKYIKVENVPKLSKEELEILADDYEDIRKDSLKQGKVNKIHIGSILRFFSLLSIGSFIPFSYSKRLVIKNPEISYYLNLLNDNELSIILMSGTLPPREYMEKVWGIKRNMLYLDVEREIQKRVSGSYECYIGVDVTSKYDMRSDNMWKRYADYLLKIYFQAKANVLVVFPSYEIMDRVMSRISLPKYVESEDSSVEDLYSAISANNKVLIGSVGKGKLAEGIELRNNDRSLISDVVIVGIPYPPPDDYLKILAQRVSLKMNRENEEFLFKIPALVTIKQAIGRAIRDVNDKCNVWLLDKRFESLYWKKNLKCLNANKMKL
In words: ITC. For orientation: In ITC the heat of successive injections is recorded.

Series [2] addresses T1, XPD. The series can be described thus: ITC. The source holds these as a separate data set.

Read-outs that look alike come from different tables or passages of the source. A value given as a limit tells only on which side of the number the result lay.

B1: ITC-T8 (ssDNA)
DNA: TTTTTTTT
Take B1: in the series with XPD [1], the Kd was greater than 40 µM.

B2: ITC-T12 (ssDNA)
DNA: TTTTTTTTTTTT
Turning to B2, binding in the series with XPD [2] was put at a Kd of 5.6 µM.
